Reference: the supplement of paper PMC5998384

Tests used:
[1] = test system: HeLa Kyoto; assay: melting temperature (median over replicates), in situ; higher = more thermally stable
[2] = test system: HeLa Kyoto; assay: thermal stability score vs G1/S (z-score of summed log2 fold changes over temperatures); higher = more thermally stable than in G1/S
[3] = cell cycle stage: early G1 (4.5 h after nocodazole release)
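For melting temperature (median over replicates), in situ in this document: HeLa Kyoto cells synchronized by double thymidine or nocodazole block, proteins quantified by TMT10plex mass spectrometry, three independent biological replicates.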
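For thermal stability score vs G1/S (z-score of summed log2 fold changes over temperatures) in this document: synchronized HeLa Kyoto cells, proteins quantified by TMT10plex mass spectrometry, three biological replicates, mitosis taken 0.5 h after nocodazole release, G1/S directly after double thymidine block.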

| Substance | melting temperature ([1]; cell cycle stage: mitosis) | thermal stability score [2, 3] | thermal stability score ([2]; cell cycle stage: mitosis) | melting temperature ([1]; cell cycle stage: G1/S) |
| --- | --- | --- | --- | --- |
| MAASGPGCRSWCLCPEVPSATFFTALLSLLVSGPRLFLLQQPLAPSGLTLKSEALRNWQVYRLVTYIFVYENPISLLCGAIIIWRFAGNFERTVGTVRHCFFTVIFAIFSAIIFLSFEAVSSLSKLGEVEDARGFTPVAFAMLGVTTVRSRMRRALVFGMVVPSVLVPWLLLGASWLIPQTSFLSNVCGLSIGLAYGLTYCYSIDLSERVALKLDQTFPFSLMRRISVFKYVSGSSAERRAAQSRKLNPVPGSYPTQSCHPHLSPSHPVSQTQHASGQKLASWPSCTPGHMPTLPPYQPASGLCYVQNHFGPNPTSSSVYPASAGTSLGIQPPTPVNSPGTVYSGALGTPGAAGSKESSRVPMP [RHBDD2] | 52.5 °C | -1.05 | -1.48 |  |
| MWRWIRQQLGFDPPHQSDTRTIYVANRFPQNGLYTPQKFIDNRIISSKYTVWNFVPKNLFEQFRRVANFYFLIIFLVQLMIDTPTSPVTSGLPLFFVITVTAIKQGYEDWLRHNSDNEVNGAPVYVVRSGGLVKTRSKNIRVGDIVRIAKDEIFPADLVLLSSDRLDGSCHVTTASLDGETNLKTHVAVPETALLQTVANLDTLVAVIECQQPEADLYRFMGRMIITQQMEEIVRPLGPESLLLRGARLKNTKEIFGVAVYTGMETKMALNYKSKSQKRSAVEKSMNTFLIIYLVILISEAVISTILKYTWQAEEKWDEPWYNQKTEHQRNSSKILRFISDFLAFLVLYNFIIPISLYVTVEMQKFLGSFFIGWDLDLYHEESDQKAQVNTSDLNEELGQVEYVFTDKTGTLTENEMQFRECSINGMKYQEINGRLVPEGPTPDSSEGNLSYLSSLSHLNNLSHLTTSSSFRTSPENETELIKEHDLFFKAVSLCHTVQISNVQTDCTGDGPWQSNLAPSQLEYYASSPDEKALVEAAARIGIVFIGNSEETMEVKTLGKLERYKLLHILEFDSDRRRMSVIVQAPSGEKLLFAKGAESSILPKCIGGEIEKTRIHVDEFALKGLRTLCIAYRKFTSKEYEEIDKRIFEARTALQQREEKLAAVFQFIEKDLILLGATAVEDRLQDKVRETIEALRMAGIKVWVLTGDKHETAVSVSLSCGHFHRTMNILELINQKSDSECAEQLRQLARRITEDHVIQHGLVVDGTSLSLALREHEKLFMEVCRNCSAVLCCRMAPLQKAKVIRLIKISPEKPITLAVGDGANDVSMIQEAHVGIGIMGKEGRQAARNSDYAIARFKFLSKLLFVHGHFYYIRIATLVQYFFYKNVCFITPQFLYQFYCLFSQQTLYDSVYLTLYNICFTSLPILIYSLLEQHVDPHVLQNKPTLYRDISKNRLLSIKTFLYWTILGFSHAFIFFFGSYLLIGKDTSLLGNGQMFGNWTFGTLVFTVMVITVTVKMALETHFWTWINHLVTWGSIIFYFVFSLFYGGILWPFLGSQNMYFVFIQLLSSGSAWFAIILMVVTCLFLDIIKKVFDRHLHPTSTEKAQLTETNAGIKCLDSMCCFPEGEAACASVGRMLERVIGRCSPTHISRSWSASDPFYTNDRSILTLSTMDSSTC [ATP11B] | 55.5 °C | -2.25 | -0.924 | 57.4 °C |
| MKSVIYHALSQKEANDSDVQPSGAQRAEAFVRAFLKRSTPRMSPQAREDQLQRKAVVLEYFTRHKRKEKKKKAKGLSARQRRELRLFDIKPEQQRYSLFLPLHELWKQYIRDLCSGLKPDTQPQMIQAKLLKADLHGAIISVTKSKCPSYVGITGILLQETKHIFKIITKEDRLKVIPKLNCVFTVETDGFISYIYGSKFQLRSSERSAKKFKAKGTIDL [POP4] |  | -1.07 | -2.15 | 52.4 °C |
| MISLTDTQKIGMGLTGFGVFFLFFGMILFFDKALLAIGNVLFVAGLAFVIGLERTFRFFFQKHKMKATGFFLGGVFVVLIGWPLIGMIFEIYGFFLLFRGFFPVVVGFIRRVPVLGSLLNLPGIRSFVDKVGESNNMV [GOLT1B] | 54.6 °C | -3.12 | -4.7 | 59 °C |
| MAAACGPGAAGYCLLLGLHLFLLTAGPALGWNDPDRMLLRDVKALTLHYDRYTTSRRLDPIPQLKCVGGTAGCDSYTPKVIQCQNKGWDGYDVQWECKTDLDIAYKFGKTVVSCEGYESSEDQYVLRGSCGLEYNLDYTELGLQKLKESGKQHGFASFSDYYYKWSSADSCNMSGLITIVVLLGIAFVVYKLFLSDGQYSPPPYSEYPPFSHRYQRFTNSAGPPPPGFKSEFTGPQNTGHGATSGFGSAFTGQQGYENSGPGFWTGLGTGGILGYLFGSNRAATPFSDSWYYPSYPPSYPGTWNRAYSPLHGGSGSYSVCSNSDTKTRTASGYGGTRRR [SARAF] | 53.3 °C | -0.125 | 0.434 | 52 °C |
| MPSPQLLVLFGSQTGTAQDVSERLGREARRRRLGCRVQALDSYPVVNLINEPLVIFVCATTGQGDPPDNMKNFWRFIFRKNLPSTALCQMDFAVLGLGDSSYAKFNFVAKKLHRRLLQLGGSALLPVCLGDDQHELGPDAAVDPWLRDLWDRVLGLYPPPPGLTEIPPGVPLPSKFTLLFLQEAPSTGSEGQRVAHPGSQEPPSESKPFLAPMISNQRVTGPSHFQDVRLIEFDILGSGISFAAGDVVLIQPSNSAAHVQRFCQVLGLDPDQLFMLQPREPDVSSPTRLPQPCSMRHLVSHYLDIASVPRRSFFELLACLSLHELEREKLLEFSSAQGQEELFEYCNRPRRTILEVLCDFPHTAAAIPPDYLLDLIPVIRPRAFSIASSLLTHPSRLQILVAVVQFQTRLKEPRRGLCSSWLASLDPGQGPVRVPLWVRPGSLAFPETPDTPVIMVGPGTGVAPFRAAIQERVAQGQTGNFLFFGCRWRDQDFYWEAEWQELEKRDCLTLIPAFSREQEQKVYVQHRLRELGSLVWELLDRQGAYFYLAGNAKSMPADVSEALMSIFQEEGGLCSPDAAAYLARLQQTRRFQTETWA [NDOR1] |  | -0.788 | -0.432 | 52.6 °C |
| ITM2B | 54.7 °C | 5.19 | 0.613 | 55.2 °C |
| MGRLLRAARLPPLLSPLLLLLVGGAFLGACVAGSDEPGPEGLTSTSLLDLLLPTGLEPLDSEEPSETMGLGAGLGAPGSGFPSEENEESRILQPPQYFWEEEEELNDSSLDLGPTADYVFPDLTEKAGSIEDTSQAQELPNLPSPLPKMNLVEPPWHMPPREEEEEEEEEEEREKEEVEKQEEEEEEELLPVNGSQEEAKPQVRDFSLTSSSQTPGATKSRHEDSGDQASSGVEVESSMGPSLLLPSVTPTTVTPGDQDSTSQEAEATVLPAAGLGVEFEAPQEASEEATAGAAGLSGQHEEVPALPSFPQTTAPSGAEHPDEDPLGSRTSASSPLAPGDMELTPSSATLGQEDLNQQLLEGQAAEAQSRIPWDSTQVICKDWSNLAGKNYIILNMTENIDCEVFRQHRGPQLLALVEEVLPRHGSGHHGAWHISLSKPSEKEQHLLMTLVGEQGVVPTQDVLSMLGDIRRSLEEIGIQNYSTTSSCQARASQVRSDYGTLFVVLVVIGAICIIIIALGLLYNCWQRRLPKLKHVSHGEELRFVENGCHDNPTLDVASDSQSEMQEKHPSLNGGGALNGPGSWGALMGGKRDPEDSDVFEEDTHL [PODXL2] |  |  |  | 54 °C |
| MSSKRTKTKTKKRPQRATSNVFAMFDQSQIQEFKEAFNMIDQNRDGFIDKEDLHDMLASLGKNPTDEYLDAMMNEAPGPINFTMFLTMFGEKLNGTDPEDVIRNAFACFDEEATGTIQEDYLRELLTTMGDRFTDEEVDELYREAPIDKKGNFNYIEFTRILKHGAKDKDD [MYL12A] | 52.7 °C |  |  | 54 °C |
| MSRFFTTGSDSESESSLSGEELVTKPVGGNYGKQPLLLSEDEEDTKRVVRSAKDKRFEELTNLIRTIRNAMKIRDVTKCLEEFELLGKAYGKAKSIVDKEGVPRFYIRILADLEDYLNELWEDKEGKKKMNKNNAKALSTLRQKIRKYNRDFESHITSYKQNPEQSADEDAEKNEEDSEGSSDEDEDEDGVSAATFLKKKSEAPSGESRKFLKKMDDEDEDSEDSEDDEDWDTGSTSSDSDSEEEEGKQTALASRFLKKAPTTDEDKKAAEKKREDKAKKKHDRKSKRLDEEEEEDNEGGEWERVRGGVPLVKEKPKMFAKGTEITHAVVIKKLNEILQARGKKGTDRAAQIELLQLLVQIAAENNLGEGVIVKIKFNIIASLYDYNPNLATYMKPEMWGKCLDCINELMDILFANPNIFVGENILEESENLHNADQPLRVRGCILTLVERMDEEFTKIMQNTDPHSQEYVEHLKDEAQVCAIIERVQRYLEEKGTTEEVCRIYLLRILHTYYKFDYKAHQRQLTPPEGSSKSEQDQAENEGEDSAVLMERLCKYIYAKDRTDRIRTCAILCHIYHHALHSRWYQARDLMLMSHLQDNIQHADPPVQILYNRTMVQLGICAFRQGLTKDAHNALLDIQSSGRAKELLGQGLLLRSLQERNQEQEKVERRRQVPFHLHINLELLECVYLVSAMLLEIPYMAAHESDARRRMISKQFHHQLRVGERQPLLGPPESMREHVVAASKAMKMGDWKTCHSFIINEKMNGKVWDLFPEADKVRTMLVRKIQEESLRTYLFTYSSVYDSISMETLSDMFELDLPTVHSIISKMIINEELMASLDQPTQTVVMHRTEPTAQQNLALQLAEKLGSLVENNERVFDHKQGTYGGYFRDQKDGYRKNEGYMRRGGYRQQQSQTAY [EIF3CL] | 48.9 °C |  |  | 49 °C |
| MAGPAAAFRRLGALSGAAALGFASYGAHGAQFPDAYGKELFDKANKHHFLHSLALLGVPHCRKPLWAGLLLASGTTLFCTSFYYQALSGDPSIQTLAPAGGTLLLLGWLALAL [TMEM256] | 56.6 °C |  |  |  |
| MVGGGGVGGGLLENANPLIYQRSGERPVTAGEEDEQVPDSIDAREIFDLIRSINDPEHPLTLEELNVVEQVRVQVSDPESTVAVAFTPTIPHCSMATLIGLSIKVKLLRSLPQRFKMDVHITPGTHASEHAVNKQLADKERVAAALENTHLLEVVNQCLSARS [FAM96B] | 52.7 °C |  |  | 50.3 °C |
| MLLATLLLLLLGGALAHPDRIIFPNHACEDPPAVLLEVQGTLQRPLVRDSRTSPANCTWLILGSKEQTVTIRFQKLHLACGSERLTLRSPLQPLISLCEAPPSPLQLPGGNVTITYSYAGARAPMGQGFLLSYSQDWLMCLQEEFQCLNHRCVSAVQRCDGVDACGDGSDEAGCSSDPFPGLTPRPVPSLPCNVTLEDFYGVFSSPGYTHLASVSHPQSCHWLLDPHDGRRLAVRFTALDLGFGDAVHVYDGPGPPESSRLLRSLTHFSNGKAVTVETLSGQAVVSYHTVAWSNGRGFNATYHVRGYCLPWDRPCGLGSGLGAGEGLGERCYSEAQRCDGSWDCADGTDEEDCPGCPPGHFPCGAAGTSGATACYLPADRCNYQTFCADGADERRCRHCQPGNFRCRDEKCVYETWVCDGQPDCADGSDEWDCSYVLPRKVITAAVIGSLVCGLLLVIALGCTCKLYAIRTQEYSIFAPLSRMEAEIVQQQAPPSYGQLIAQGAIPPVEDFPTENPNDNSVLGNLRSLLQILRQDMTPGGGPGARRRQRGRLMRRLVRRLRRWGLLPRTNTPARASEARSQVTPSAAPLEALDGGTGPAREGGAVGGQDGEQAPPLPIKAPLPSASTSPAPTTVPEAPGPLPSLPLEPSLLSGVVQALRGRLLPSLGPPGPTRSPPGPHTAVLALEDEDDVLLVPLAEPGVWVAEAEDEPLLT [LRP10] |  |  |  | 54.7 °C |
| MNQENPPPYPGPGPTAPYPPYPPQPMGPGPMGGPYPPPQGYPYQGYPQYGWQGGPQEPPKTTVYVVEDQRRDELGPSTCLTACWTALCCCCLWDMLT [CYSTM1] | 52.8 °C |  |  | 59 °C |
| MLGSRAAGFARGLRAVALAWLPGWRGRSFALARAAGAPHGGDLQPPACPEPRGRQLSLSAAAVVDSAPRPLQPYLRLMRLDKPIGTWLLYLPCTWSIGLAAEPGCFPDWYMLSLFGTGAILMRGAGCTINDMWDQDYDKKVTRTANRPIAAGDISTFQSFVFLGGQLTLALGVLLCLNYYSIALGAGSLLLVITYPLMKRISYWPQLALGLTFNWGALLGWSAIKGSCDPSVCLPLYFSGVMWTLIYDTIYAHQDKRDDVLIGLKSTALRFGENTKPWLSGFSVAMLGALSLVGVNSGQTAPYYAALGAVGAHLTHQIYTLDIHRPEDCWNKFISNRTLGLIVFLGIVLGNLWKEKKTDKTKKGIENKIEN [COQ2] |  |  |  | 55.1 °C |
